Target: Mercuric ion reductase (MerA) from Metallosphaera sedula (Metallosphaera sedula)
Assay: crystal structure; hanging drop; 0.085M TRIS (pH 8.5), 15% v/v glycerol, 14% w/v PEG400, 0.19M LiSO4, 20 mg/mL protein; data collected at 100 K; bound FAD; space group P22(1)2(1), two monomers per asymmetric unit

stoichiometry N: 2
Substance: Mercuric ion reductase (MerA) from Metallosphaera sedula (enzyme)
